B1: LOC100129726 (parent)
chain: VHTGCHKKLGPEARRPRTRWGKN
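Also: lentivirally expressed fusions sorted by FACS into six bins by GFP to DsRed ratio, PSI derived from sequencing read proportions per bin multiplied by bin number.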

Variants of: B1
Test: protein stability index of a GFP-peptide fusion (GPS, HEK-293T) (PSI 1-6); higher = more stable
Conditions: c terminus: native
For W20I, the protein stability index was 3.89.
Variant W20Q has a protein stability index of 3.66.
With W20Y the protein stability index was 2.26.
W20G showed a protein stability index of 1.33.
With W20T the protein stability index was 4.15.
For W20P, the protein stability index was 2.01.
With W20N the protein stability index was 4.45.
W20R gave a protein stability index of 4.73.
With K22I the protein stability index was 4.11.
In the case of K22T, the protein stability index is reported as 2.93.
For K22P, the protein stability index was 3.43.
Work on K8Q yielded a protein stability index of 2.41.
K8P gave a protein stability index of 2.52.
Work on K8C yielded a protein stability index of 1.65.
In the case of K8S, the protein stability index is reported as 2.25.
With K8I the protein stability index was 1.37.
With K8M the protein stability index was 2.25.
K8E showed a protein stability index of 1.63.
Variant K8L has a protein stability index of 2.63.
Variant E12F has a protein stability index of 1.23.
Work on E12C yielded a protein stability index of 3.61.
E12D gave a protein stability index of 2.56.
With E12R the protein stability index was 3.79.
Work on E12V yielded a protein stability index of 1.23.
Work on E12M yielded a protein stability index of 1.47.
With E12Q the protein stability index was 1.75.
Variant E12H has a protein stability index of 2.21.
For E12K, the protein stability index was 1.01.
With E12T the protein stability index was 1.42.
With E12L the protein stability index was 2.17.
In the case of E12Y, the protein stability index is reported as 2.69.
Work on R15N yielded a protein stability index of 2.42.
For R15F, the protein stability index was 3.27.
R15I showed a protein stability index of 1.27.
Work on R15Y yielded a protein stability index of 2.06.
With R15H the protein stability index was 2.44.
Work on R15L yielded a protein stability index of 1.7.
R15P gave a protein stability index of 2.75.
Variant R15Q has a protein stability index of 1.75.
Work on R15E yielded a protein stability index of 2.63.
Work on R15C yielded a protein stability index of 1.41.
R15G gave a protein stability index of 3.43.
R15V showed a protein stability index of 1.34.
For R14I, the protein stability index was 3.23.
In the case of R14M, the protein stability index is reported as 3.01.
Variant R14Y has a protein stability index of 3.
Work on R14P yielded a protein stability index of 4.64.
R14A showed a protein stability index of 3.44.
In the case of R14V, the protein stability index is reported as 3.24.
In the case of R14F, the protein stability index is reported as 2.72.
Variant R14E has a protein stability index of 3.01.
In the case of R14W, the protein stability index is reported as 1.54.
Variant R14G has a protein stability index of 4.21.
With R14C the protein stability index was 2.81.
Work on R14K yielded a protein stability index of 2.05.
Variant R14H has a protein stability index of 2.71.
C5M showed a protein stability index of 2.41.
Variant C5S has a protein stability index of 1.51.
In the case of C5A, the protein stability index is reported as 2.57.
With C5T the protein stability index was 2.35.
C5V gave a protein stability index of 2.93.
In the case of C5Y, the protein stability index is reported as 1.98.
Work on C5N yielded a protein stability index of 1.59.
C5L gave a protein stability index of 2.41.
Work on C5W yielded a protein stability index of 1.2.
For C5G, the protein stability index was 2.34.
With C5Q the protein stability index was 1.54.
In the case of C5F, the protein stability index is reported as 1.85.
C5K showed a protein stability index of 2.27.
Work on C5I yielded a protein stability index of 1.63.
In the case of C5R, the protein stability index is reported as 2.29.
In the case of C5E, the protein stability index is reported as 2.57.
Work on C5P yielded a protein stability index of 2.09.
Work on R19W yielded a protein stability index of 2.67.
Variant R19K has a protein stability index of 1.49.
In the case of R19D, the protein stability index is reported as 5.13.
With R19E the protein stability index was 3.77.
Work on R19N yielded a protein stability index of 2.5.
In the case of R19Y, the protein stability index is reported as 1.92.
R19F showed a protein stability index of 2.3.
R19L gave a protein stability index of 3.09.
R19M gave a protein stability index of 2.41.
Work on R19H yielded a protein stability index of 2.59.
With R17I the protein stability index was 1.98.
R17C showed a protein stability index of 1.93.
R17N gave a protein stability index of 3.66.
Work on R17W yielded a protein stability index of 1.66.
For R17K, the protein stability index was 1.36.
Variant R17D has a protein stability index of 4.38.
In the case of R17A, the protein stability index is reported as 2.5.
With R17L the protein stability index was 1.7.
In the case of R17P, the protein stability index is reported as 4.37.
R17Y showed a protein stability index of 2.15.
Work on R17F yielded a protein stability index of 2.48.
In the case of R17Q, the protein stability index is reported as 1.01.
With R17E the protein stability index was 2.26.
R17S showed a protein stability index of 2.7.
R17G showed a protein stability index of 2.75.
Work on R17T yielded a protein stability index of 2.59.
V1L gave a protein stability index of 1.84.
With V1E the protein stability index was 2.96.
In the case of V1I, the protein stability index is reported as 2.54.
V1C gave a protein stability index of 2.12.
Work on V1M yielded a protein stability index of 1.73.
In the case of V1S, the protein stability index is reported as 1.99.
With V1R the protein stability index was 2.02.
Work on V1H yielded a protein stability index of 2.43.
G4D showed a protein stability index of 2.33.
Work on G4L yielded a protein stability index of 2.91.
Variant G4C has a protein stability index of 2.51.
G4F gave a protein stability index of 2.72.
Work on G4E yielded a protein stability index of 3.67.
Variant G4I has a protein stability index of 2.66.
Variant G4R has a protein stability index of 2.47.
In the case of G4N, the protein stability index is reported as 1.01.
In the case of G4S, the protein stability index is reported as 2.56.
With G4P the protein stability index was 2.15.
For G4K, the protein stability index was 2.71.
For G4V, the protein stability index was 2.14.
With G4M the protein stability index was 2.44.
A13N gave a protein stability index of 1.94.
A13F showed a protein stability index of 2.49.
For A13K, the protein stability index was 1.11.
In the case of A13S, the protein stability index is reported as 2.71.
A13E showed a protein stability index of 2.55.
For A13W, the protein stability index was 2.94.
A13R showed a protein stability index of 1.64.
Variant K7H has a protein stability index of 2.33.
K7M gave a protein stability index of 4.17.
Work on K7V yielded a protein stability index of 1.08.
For K7E, the protein stability index was 1.87.
With H6M the protein stability index was 2.12.
For H6A, the protein stability index was 1.63.
In the case of H6R, the protein stability index is reported as 2.85.
H6P gave a protein stability index of 1.77.
For H6E, the protein stability index was 1.41.
Work on H6Y yielded a protein stability index of 2.62.
In the case of H6F, the protein stability index is reported as 1.81.
H6G showed a protein stability index of 1.64.
For H6K, the protein stability index was 1.38.
For H6S, the protein stability index was 1.85.
H6T gave a protein stability index of 1.76.
With T18E the protein stability index was 3.94.
Work on T18D yielded a protein stability index of 3.96.
Variant T18G has a protein stability index of 3.94.
T18L showed a protein stability index of 3.05.
With T18S the protein stability index was 2.69.
T18M gave a protein stability index of 2.
Work on T18H yielded a protein stability index of 1.7.
T18A showed a protein stability index of 2.96.
With T18V the protein stability index was 1.29.
T18N showed a protein stability index of 1.74.
In the case of T18C, the protein stability index is reported as 1.63.
T18Y gave a protein stability index of 2.37.
Variant T18F has a protein stability index of 2.03.
With T18I the protein stability index was 1.4.
Work on T18Q yielded a protein stability index of 2.47.
N23L showed a protein stability index of 1.42.
For N23T, the protein stability index was 2.35.
For N23S, the protein stability index was 1.74.
Work on N23F yielded a protein stability index of 2.03.
In the case of N23P, the protein stability index is reported as 2.62.
With N23I the protein stability index was 1.3.
With N23W the protein stability index was 2.27.
N23Q showed a protein stability index of 1.63.
Work on N23D yielded a protein stability index of 2.78.
N23C gave a protein stability index of 1.61.
